Test results as given in EP4582447A1 (Quaerite Biopharm Research (Beijing) Co., Ltd., dated 2025).
Changes are numbered by the printed parent chain. Like-named read-outs stand apart in the source and are kept apart here. Each block holds one binder with its values, some of them ahead of it.

How the values were obtained:
[1] = target: T1, Human VEGFA165 (human, UniProt P15692-4 27-191); assay: ELISA, VEGFA coated 0.3 µg/mL, anti-His detection
T1 construct: treated as the same molecule; also called antigen VEGFA

[2] = target: T1, Human VEGFA165; assay: competition ELISA on coated VEGFA, competitor VEGFR2-ECD-Fc 1 nM
Target sequence in this assay (P15692 other isoform, or with tags, fused parts or gaps limits assumed): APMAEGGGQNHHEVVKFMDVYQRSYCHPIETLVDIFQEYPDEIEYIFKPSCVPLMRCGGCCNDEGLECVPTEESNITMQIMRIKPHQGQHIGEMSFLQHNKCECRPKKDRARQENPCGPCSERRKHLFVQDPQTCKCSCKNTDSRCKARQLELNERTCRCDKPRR

[3] = target: T1, Human VEGFA165; assay: cell-based or functional assay
Target sequence in this assay (P15692 other isoform, or with tags, fused parts or gaps limits assumed): as above

[4] = target: T1, Human VEGFA165; assay: phage ELISA, VEGFA coated 0.5 µg/mL, anti-M13(HRP)
Target sequence in this assay (P15692 other isoform, or with tags, fused parts or gaps limits assumed): as above

[5] = target: T1, Human VEGFA165; assay: competition ELISA on coated VEGFA, competitor VEGFR2-ECD-Fc 2 nM
Target sequence in this assay (P15692 other isoform, or with tags, fused parts or gaps limits assumed): as above

[6] = target: T2, human VEGFA121 (human, UniProt P15692-9 27-147); assay: ELISA, human VEGFA121 coated 0.3 µg/mL, anti-His detection
T2 sequence (looked up): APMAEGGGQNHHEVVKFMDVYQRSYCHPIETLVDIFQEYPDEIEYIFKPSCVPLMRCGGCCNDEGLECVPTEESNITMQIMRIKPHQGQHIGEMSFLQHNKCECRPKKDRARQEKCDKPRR

[7] = target: 3% milk powder (negative control); assay: phage ELISA, 3% milk powder coated (negative control), anti-M13(HRP)
[8] = target: T1, Human VEGFA165; assay: SPR, VEGFA165 on CM5
[9] = target: T1, Human VEGFA165; assay: SPR Biacore 8K, VEGFA165 amine-coupled on CM5, nanobody as analyte, 1:1 model
[10] = target: T1, Human VEGFA165; assay: ELISA, VEGFA coated 0.3 µg/mL, anti-His detection; remark: listed apart in the source
Target sequence in this assay (P15692 other isoform, or with tags, fused parts or gaps limits assumed): as the sequence (P15692 other isoform, or with tags, fused parts or gaps limits assumed) above

[11] = target: T1, Human VEGFA165; assay: SPR Biacore 8K, VEGFA165 amine-coupled on CM5, nanobody as analyte, 1:1 model; remark: listed apart in the source
Target sequence in this assay (P15692 other isoform, or with tags, fused parts or gaps limits assumed): as the sequence (P15692 other isoform, or with tags, fused parts or gaps limits assumed) above

[12] = target: T1, Human VEGFA165; assay: SPR Biacore 8K, V1-SA1 amine-coupled on CM5, VEGFA165 as analyte, two state reaction model (kd1)
[13] = target: T1, Human VEGFA165; assay: SPR Biacore 8K, V1-SA1 amine-coupled on CM5, VEGFA165 as analyte, two state reaction model
[14] = target: T1, Human VEGFA165; assay: SPR Biacore 8K, V1-SA1 amine-coupled on CM5, VEGFA165 as analyte, two state reaction model (ka1)

EC50 [1]: 0.25 nM
B1: linear tandem bivalent nanobody 2V15-9GS (VHH)
chain: QLQLVESGGGSVQPGGSLRLSCEVSGRTFASYTMGWFRQAPGKEREFVVAISKGGYKYDSVSLEARFTISKDNTKNTVYLQMNSLKPEDTAVYYCAGTRAYGSSRLRLAETYEYWGQGTQVTVSSGGGGSGGGSQLQLVESGGGSVQPGGSLRLSCEVSGRTFASYTMGWFRQAPGKEREFVVAISKGGYKYDSVSLEARFTISKDNTKNTVYLQMNSLKPEDTAVYYCAGTRAYGSSRLRLAETYEYWGQGTQVTVSS
notes: no further tag added here

IC50 [2]: 5.59 nM
Maximum inhibition rate (%) [2]: 90.5%
IC50 (pM), inhibition of VEGFA-stimulated HUVEC proliferation (CCK-8) [3]: 2690 pM
Maximum inhibition rate (%) of HUVEC proliferation [3]: 103%
OD450 [4]: 2.31 OD450
IC50 [5]: 26.4 nM
Maximum inhibition rate (%) [5]: 95%
EC50 [6]: 1.27 nM
OD450 [7]: 0.0377 OD450
fold difference of KD from the positive control BI-VEGF ab [8]: < 3 fold
Kd [9]: 0.247 nM
koff [9]: 0.000101 s⁻¹
kon [9]: 409000 M⁻¹ s⁻¹
EC50 [10]: 0.53 nM
Kd [11]: 0.247 nM
koff [11]: 0.000101 s⁻¹
kon [11]: 409000 M⁻¹ s⁻¹
B2: V1 (VHH)
VHH: QLQLVESGGGSVQPGGSLRLSCEVSGRTFSSYTMGWFRQAPGKEREFVVAISKGGYKYDSVSLEARFTISKDNTKNTVYLQMNSLKPEDTAVYYCAATRAYGSSRLRLADTYEYWGQGTQVTVSS
notes: also called candidate antibody V1; antibody V1

koff [12]: 0.0598 s⁻¹
Kd [13]: 4.38 nM
IC50 [5]: 22.5 nM
Maximum inhibition rate (%) [5]: 94.6%
kon [14]: 1.06e+06 M⁻¹ s⁻¹
B3: V1-SA1 (VHH)
VHH: B2 VHH with Q1E, L2V, S11L, E23A, K71R, T74A, K86R, Q120L
notes: Humanized V1; also called humanized antibody V1-SA1; monovalent nanobody V1-SA1
